Measurements taken from patent US20240002498A1 (TENEOBIO, published 2024).

Columns and labels:
[1] = target: human Folate Receptor Alpha (FOLR1) on cells (human) (UniProt P15328); experiment: cell-based or functional assay
[2] = target: human Folate Receptor Alpha (FOLR1) on cells (human) (UniProt P15328); experiment: saturation binding on IGROV-1 cells, bound against free antibody (Scatchard analysis per paragraph 239)
[3] = target: T1, FOLR3 (folate receptor gamma) (UniProt P41439 23-245, limits assumed); experiment: BLI (Octet)
T1 construct: also called FRγ

[4] = target: T2, human Folate Receptor Alpha (FOLR1) on cells (human, UniProt P15328 25-234); experiment: cell binding, IGROV-1 cells
T2 construct: whole, on cells; Endogenous on IGROV-1, OVCAR-3, SKOV-3, HT-29 cells; transfected on CHO cells; the cell is named under assay; also called FRα; FRa

[5] = target: T2, human Folate Receptor Alpha (FOLR1) on …; experiment: cell binding, OVCAR-3 cells
[6] = target: recombinant human FOLR1 (human, UniProt P15328 25-234); experiment: BLI, Octet QK-384, recombinant human FOLR1
Procedure: As used herein, the “Kd” or “Kd value” refers to a dissociation constant determined by BioLayer Interferometry, using an Octet QK384 instrument (Fortebio Inc., Menlo Park, CA) in kinetics mode. For example, anti-mouse Fc sensors are loaded with mouse-Fc fused antigen and then dipped into antibody-containing wells to measure concentration dependent association rates (kon). Antibody dissociation rates (koff) are measured in the final step, where the sensors are dipped into wells containing buffer only. The Kd is the ratio of koff/kon. (For further details see, Concepcion, J, et al., Comb Chem High Throughput Screen, 12 (8), 791-800, 2009).
Table 17 summarizes affinity and epitope bin information for anti-FOLR1 heavy chain antibodies (HCAbs). Column 1 indicates the clone ID of the HCAb. Column 2 indicates the affinity of the HCAb to recombinant human FOLR1 as measured by Bio-layer interferometry (BLI) using an Octet QK-384. Column 3 indicates the epitope bin of HCAb as determined by a competition BLI binding experiment using an Octet QK-384.

[7] = target: T3, cyno FOLR1 on CHO cells (cyno (Cynomolgus macaque), UniProt A0A2K5U044 25-234); experiment: cell binding, CHO cells stably expressing cyno FOLR1
T3 construct: whole, on cells; also called cyFOLR1

[8] = target: T2, human Folate Receptor Alpha (FOLR1) on …; experiment: cell binding, CHO cells stably expressing human FOLR1
[9] = target: T3, cyno FOLR1 on CHO cells; experiment: flow cytometry, CHO cells stably expressing cyno FOLR1
[10] = target: T2, human Folate Receptor Alpha (FOLR1) on …; experiment: flow cytometry, CHO cells stably expressing human FOLR1
[11] = target: T4, mouse FOLR1 on CHO cells (mouse, UniProt P35846 25-232); experiment: flow cytometry on CHO cells stably expressing mouse FOLR1, MFI fold over background
T4 construct: whole, on cells; also called msFOLR1
Procedure: IGROV-1 cells, OVCAR-3 cells, CHO cells stably expressing human FOLR1, CHO cells stably expressing cyno FOLR1, and CHO cells stably expressing mouse FOLR1 were incubated with increasing amounts of the indicated antibodies, and binding characteristics were analyzed. Data are presented in FIG. 1, panels A-E, as MFI fold over background.

human Folate Receptor Alpha (FOLR1) on cells (human), sequence (P15328 25-234): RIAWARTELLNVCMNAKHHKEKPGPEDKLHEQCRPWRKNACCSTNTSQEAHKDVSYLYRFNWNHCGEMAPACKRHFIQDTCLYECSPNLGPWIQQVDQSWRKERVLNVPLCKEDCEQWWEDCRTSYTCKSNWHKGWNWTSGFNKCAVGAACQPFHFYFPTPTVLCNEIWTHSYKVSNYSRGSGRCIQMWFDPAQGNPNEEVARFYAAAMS
T2 sequence (P15328 25-234): as above
T3 sequence (A0A2K5U044 entry or part of it): as the sequence (P15328 25-234) above, with I2T, W4R, R37K, A146P, H171Y counted along it
recombinant human FOLR1, sequence (P15328 25-234 limits assumed): as the sequence (P15328 25-234) above
T4 sequence (P35846 25-232): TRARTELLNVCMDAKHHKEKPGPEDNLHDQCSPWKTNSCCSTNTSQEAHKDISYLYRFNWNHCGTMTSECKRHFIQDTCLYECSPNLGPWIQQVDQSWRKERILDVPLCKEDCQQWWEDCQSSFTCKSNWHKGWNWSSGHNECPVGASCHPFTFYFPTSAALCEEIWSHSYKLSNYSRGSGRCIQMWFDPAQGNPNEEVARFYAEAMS
T1 sequence (P41439 23-245 limits assumed): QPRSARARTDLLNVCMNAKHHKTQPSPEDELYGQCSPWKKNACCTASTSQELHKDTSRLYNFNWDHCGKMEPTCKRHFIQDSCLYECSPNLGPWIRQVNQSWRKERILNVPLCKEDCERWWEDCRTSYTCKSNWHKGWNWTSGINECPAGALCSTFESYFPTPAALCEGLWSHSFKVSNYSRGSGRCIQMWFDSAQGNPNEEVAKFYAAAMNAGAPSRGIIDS

Row | EC50 of ex vivo tumor cell lysis (dissociated ovarian tumor sample) [1] | maximum tumor cell lysis (IGROV-1 cells with human pan T-cells, 48 hours) [1] | EC50 (read off the curve) [2] | binding result [3] | EC50 [4] | EC50 [5] | Kd [6] | EC50 [7] | EC50 [8] | fold over background MFI [9] | fold over background MFI [10] | binding result [11] | Molecule
1 | 0.0452 nM | 75% | 6 nM | – | – | – | – | – | – | – | – | – | TNB-928B, fully human bispecific antibody that binds to FOLR1 (FRα) and CD3
2 | – | – | – | no binding | 2.1 nM | 0.7 nM | 26.8 nM | 2.7 nM | 1.9 nM | 735 fold over background | 886 fold over background | no binding (tested: 100 nM (log[nM] 2)) | anti-FOLR1 heavy chain antibody (HCAb, UniAb) clone ID 358614 (antibody, V domains shown, Heavy chain-only antibody (no light chain), F18 family) VH: EVQLVESGGGLVQPGGSLRLSCAASGFSFSSYSMKWVRQAPGKGLEWVSYISRSSDTIEYADSVKGRFTISRDNAKNSLYLQMNSLRDEDTAVYYCASVGLDFDYRGQGTLVTVSS
